Results published in patent US12269859B2, “Synthetic immune receptors and methods of use thereof” (Angeles Therapeutics, Inc., priority 2016, dated 2025).

Columns and labels:
SKOV-3 cells = test: SKOV-3 intraperitoneal xenograft in NSG mice (survival); assay type: in vivo; conditions: NSG mice (n = 3), 1×10^6 SKOV-3 cells intraperitoneally, 5 million T cells intravenously
Description: Human peripheral blood T cells isolated using CD3 magnetic beads were infected with lentiviruses expressing the indicated SIR constructs targeting Folate receptor 1 (FR1), L1CAM and Epcam1. On day 1, the NSG mice were sub-lethally irradiated at a dose of 175 cGy. 24 hours post irradiation (day 2), mice were injected with 1×10^6 SKOV-3 cells intraperitoneally. On day 3, the mice were treated intravenously with 5 million indicated CAR-T cells. Beginning On day 4, mice were injected with human IL-2 i.p. at a dose of 400 IU/mice every alternate day after the injection CAR-T cells till the death of all mice in control group.

[1] = tested on: target antigen-expressing cell line; test: Jurkat NFAT-GFP assay, coculture with target cell lines expressing the respective target antigen (summary Table 10A); assay type: cell-based, human; set-up: key: The signs +/−, +, 2+ etc. after the name of the cell lines indicate the relative degree of positivity on the Jurkat-NFAT-GFP assay as measured by the % GFP positive cells; +: relative degree of positivity on the Jurkat-NFAT-GFP assay as measured by the % GFP positive cells; 2+: relative degree of positivity on the Jurkat-NFAT-GFP assay as measured by the % GFP positive cells
Procedure, shortened: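 Stable SIR expression in Jurkat-NFAT-GFP cells by lentiviral transfer and puromycin selection; coculture with target cells (E:T approximately 1:2) for 4 to 18 hours; flow cytometric measurement of NFAT-driven GFP; scoring as positive when % GFP-positive cells exceeds that of parental reporter cells.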

RAJI cells = test: RAJI xenograft model of lymphoma in NSG mice (survival); assay type: in vivo; conditions: 200 ng/mouse intraperitoneal three times, with SIR-T cells
Description: In vivo efficacy of SIR targeting CD19. […] SIR constructs and Gluc-PAC-G07 control construct encoding non-secretory form of Guassia Luciferase. Approximately half the cells were selected with puromycin while the other half was expanded without puromycin selection. NSG mice (Jackson Lab) were sub-lethally irradiated at a dose of 175 cGy. Approximately 24 hours post irradiation (day 2), mice were injected with 2.5×10^4 RAJI cells via tail-vein. […] Control mice (n=5) received no T cells or uninfected T cells. Mice were given human IL2 (400 IU intraperitoneally) on alternate days till the death of all mice in control group.
Approximately half the cells were selected with puromycin while the other half was expanded without puromycin selection. NSG mice (Jackson Lab) were sub-lethally irradiated at a dose of 175 cGy. Approximately 24 hours post irradiation (day 2), mice were injected with 2.5×10^4 RAJI cells via tail-vein. […] Control mice (n=5) received no T cells or uninfected T cells. Mice were given human IL2 (400 IU intraperitoneally) on alternate days till the death of all mice in control group.
SIR construct. NSG mice (Jackson Lab) were sub-lethally irradiated at a dose of 175 cGy. Approximately 24 hours post irradiation (day 2), mice were injected with 2.5×10^4 RAJI cells via tail-vein. […] SIR encoding lentivirus. […]

Molecule	Median Survival (SKOV-3 cells) [days]	NFAT-GFP ASSAY Positive Cell lines ([1]; coculture with A549 cells)	NFAT-GFP ASSAY Positive Cell lines ([1]; coculture with PC3 cells)	NFAT-GFP ASSAY Positive Cell lines ([1]; coculture with SKOV3 cells)	NFAT-GFP ASSAY Positive Cell lines ([1]; coculture with LoVo cells)	tumor rejection and survival (in words) (RAJI cells)
121815-C05 (protein, Synthetic Immune Receptor (SIR)) MALPVTALLLPLALLLHAARPDELQMTQSPSSLSASVGDRVTITCRASQSISSYLNWYQQKPGQPPKLLIYWASTRESGVPDRFSGSESGTNYTLTISSLQPEDFATYFCQQSDSLPITFGQGTRLDIQLEGKPIPNPLLGLDSTGSGEDLKNVFPPEVAVFEPSKAEIAHTQKATLVCLATGFYPDHVELSWWVNGKEVHSGVCTDPQPLKEQPALNDSRYCLSSRLRVSATFWQNPRNHFRCQVQFYGLSENDEWTQDRAKPVTQIVSAEAWGRADCGITSASYHQGVLSATILYEILLGKATLYAVLVSALVLMAMVKRKDSRGRAKRSGSGATNFSLLKQAGDVEENPGPTSMDWIWRILFLVGAATGAHSFEEVQLLESGGGVVQPGRSLRLSCAASGFTFSSYGMHWVRQAPGKGLEWVAVISYDGSNKYYADSVKGRFTISRDNSKNTLYLQMNSLRAEDTAVYYCAKDMGWGSGWRPYYYYGMDVWGQGTTVTVSSTREQKLISEEDGSGIQNPDPAVYQLRDSKSSDKSVCLFTDFDSQTNVSQSKDSDVYITDKCVLDMRSMDFKSNSAVAWSNKSDFACANAFNNSIIPEDTFFPSSDVPCDVKLVEKSFETDTNLNFQNLSVIGFRILLLKVAGFNLLMTLRLWSSRAKRSGSGVKQTLNFDLLKLAGDVESNPGPSRGHMTEYKPTVRLATRDDVPRAVRTLAAAFADYPATRHTVDPDRHIERVTELQELFLTRVGLDIGKVWVADDGAAVAVWTTPESVEAGAVFAEIGPRMAELSGSRLAAQQQMEGLLAPHRPKEPAWFLATVGVSPDHQGKGLGSAVVLPGVEAAERAGVPAFLETSAPRNLPFYERLGFTVTADVEVPEGPRTWCMTRKPGA	63	A549 (2+), Hela	2+	(+)		
010716-G03 (protein, Synthetic Immune Receptor (SIR)) MALPVTALLLPLALLLHAARPDIQMTQSFSSLSASVGDRVTITCRASQDISNYLNWYQQKPGKAPKLLIYYTSRLHSGVPSRFSGSGSGTDYTLTISSLQPEDFATYFCQQGNTLPWTFGGGTKLEIKRLEGKPIPNPLLGLDSTGSGEDLKNVFPPEVAVFEPSKAEIAHTQKATLVCLATGFYPDHVELSWWVNGKEVHSGVCTDPQPLKEQPALNDSRYCLSSRLRVSATFWQNPRNHFRCQVQFYGLSENDEWTQDRAKPVTQIVSAEAWGRADCGITSASYHQGVLSATILYEILLGKATLYAVLVSALVLMAMVKRKDSRGRAKRSGSGATNFSLLKQAGDVEENPGPTSMDWIWRILFLVGAATGAHSFEEVQLVQSGGGLVQSGGSLRLSCRASGYTFTRYWMLWVRQRPGKGLEWVAEINPRNDRTNYNEKFKTRFTISVDRSKNTLYLQMDSLRAEDTAVYFCALGGGYAMDYWGQGTLVTVSSTREQKLISEEDGSGIQNPDPAVYQLRDSKSSDKSVCLFTDFDSQTNVSQSKDSDVYITDKCVLDMRSMDFKSNSAVAWSNKSDFACANAFNNSIIPEDTFFPSSDVPCDVKLVEKSFETDTNLNFQNLSVIGFRILLLKVAGFNLLMTLRLWSSRAKRSGSGVKQTLNFDLLKLAGDVESNPGPSRGHMTEYKPTVRLATRDDVPRAVRTLAAAFADYPATRHTVDPDRHIERVTELQELFLTRVGLDIGKVWVADDGAAVAVWTTPESVEAGAVFAEIGPRMAELSGSRLAAQQQMEGLLAPHRPKEPAWFLATVGVSPDHQGKGLGSAVVLPGVEAAERAGVPAFLETSAPRNLPFYERLGFTVTADVEVPEGPRTWCMTRKPGA	63	LoVo (+), A549 (+),			LoVo (+), A549 (+),	
IL-7: exogenous recombinant human IL-7 (protein, UniProt P13232 26-177, looked up) Interleukin-7: DCDIEGKDGKQYESVLMVSIDQLLDSMKEIGSNCLNNEFNFFKRHICDANKEGMFLFRAARKLRQFLKMNSTGDFDLHLLKVSEGTTILLNCTGQVKGRKPAALGEAQPTKSLEENKSLKEQKKLNDLCFLKRLLQEIKTCWNKILMGTKEH						reject their tumor and survive longer
